By Kd is commonly meant the free concentration of one partner at which half of the binding sites on the other are occupied at equilibrium, for simple one-to-one binding.

The source of these data is US20100260748A1.

This experiment has as its target T1, human FcRH5 (FcRH5c/IRTA2c, PRO52387), recombinant protein ('Hu antigen') (human) (UniProt Q96RD9).
T1 sequence: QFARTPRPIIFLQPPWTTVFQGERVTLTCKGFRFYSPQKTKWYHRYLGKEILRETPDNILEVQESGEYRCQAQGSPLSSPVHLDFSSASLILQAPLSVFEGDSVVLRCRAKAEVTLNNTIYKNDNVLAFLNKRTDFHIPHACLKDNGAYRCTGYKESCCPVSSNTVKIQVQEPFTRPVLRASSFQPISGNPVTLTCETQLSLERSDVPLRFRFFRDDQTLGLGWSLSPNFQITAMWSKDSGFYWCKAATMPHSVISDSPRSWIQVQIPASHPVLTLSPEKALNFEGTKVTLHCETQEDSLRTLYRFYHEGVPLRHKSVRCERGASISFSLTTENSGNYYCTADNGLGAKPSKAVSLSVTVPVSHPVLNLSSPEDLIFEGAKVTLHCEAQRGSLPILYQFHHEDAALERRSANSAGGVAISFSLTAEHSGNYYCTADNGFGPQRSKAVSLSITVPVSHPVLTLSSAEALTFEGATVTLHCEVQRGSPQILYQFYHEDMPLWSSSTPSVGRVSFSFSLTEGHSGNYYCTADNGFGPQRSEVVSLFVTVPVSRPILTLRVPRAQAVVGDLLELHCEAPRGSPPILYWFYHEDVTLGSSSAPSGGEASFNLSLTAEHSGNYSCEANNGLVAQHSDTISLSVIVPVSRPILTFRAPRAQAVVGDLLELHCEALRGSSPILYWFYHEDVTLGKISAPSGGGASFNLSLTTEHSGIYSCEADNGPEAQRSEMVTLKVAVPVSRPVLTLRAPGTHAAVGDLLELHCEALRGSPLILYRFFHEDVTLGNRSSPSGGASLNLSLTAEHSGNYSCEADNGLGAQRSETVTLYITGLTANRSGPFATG
Kind of experiment: SPR (Biacore 2000), IgG captured on anti-murine IgG chip, serial dilutions of FcRH injected, 25 C, 1:1 Langmuir fit. (In general: SPR reads the build-up and loss of mass on a sensor chip optically.)

B1: murine anti-FcRH5-13G9 monoclonal antibody (antibody, from another filing, V domains shown)
VH: EVQLVQSGPELKKPGETVKISCKASGYTFTNYGMNWVKQAPGKGLKWMGWVNTYTGEPTYTDDFKGRFAFSVETSASTVFLQINNLKNEDTATYFCARRSIPYYYAMDYWGQGTSLT
VL: DIVMTQSQKIMSTSVGDRVNVTCKASQNVGSNVAWYHQKPGQSPKALIYSASYRYSGVPDRFTGSGSGTDFTLTISNVQSEDLAEYFCQQYKTWTFGGGTKLEIKR
On to B1, for which the Kd is 19 nM.
